Publication PMC3033224 (Nature chemical biology, 2010)
Positions of bridges follow the written chain, without caps; N, C: chain ends. Non-standard residues stand in square brackets, D forms with d. No end group written: not given here. *: point of attachment. FITC = O=C1OC2(c3ccc(O)cc3Oc3cc(O)ccc32)c2ccc(NC(=S)*)cc21; S5 = C=CCCC[C@](C)(N)C(=O)O; Nle = CCCC[C@H](N)C(=O)O; βAla = NCCC(=O)O

Target: recombinant human MCL-1ΔNΔC (amino acids 172–320) (human, UniProt Q07820 172-320)
Test: fluorescence polarisation

Sequence of recombinant human MCL-1ΔNΔC (amino acids 172–320) (Q07820 172-320, stated change not applied): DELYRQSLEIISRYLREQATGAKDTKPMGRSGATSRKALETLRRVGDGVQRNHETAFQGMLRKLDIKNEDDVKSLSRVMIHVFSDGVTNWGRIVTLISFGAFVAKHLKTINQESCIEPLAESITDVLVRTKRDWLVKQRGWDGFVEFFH

| Kd | Binder |
| --- | --- |
| ≤ 50 nM | {FITC-βAla}-DIIRNIARHLA[S5]VGD[S5][Nle]DRSI (staple 12-16) [FITC-BID SAHBA] |
| ≤ 50 nM | {FITC-βAla}-QWAREIGAQLR[S5][Nle]AD[S5]LNAQY (staple 12-16) [FITC-PUMA SAHBA] |
